In patent publication US20050037969A1:

Target: GST-DLG1 fusion protein (PDZ domains 1-2) (human) (UniProt Q12959)
Experiment: variant of the G assay, 100 uM 8-mer against 20 uM biotin-labeled AA2L

percent inhibition at 100 uM: > 50%
Substance: eight amino acid CLASP-2 peptide MTSSSSVV (unlabeled)
